Columns and labels:
cynomolgus 5T4 on cells = target: T1, cynomolgus 5T4 on cells (cynomolgus macaque, UniProt Q4R8Y9 35-420); experiment: flow cytometry, CHO-K1/cynomolgus 5T4 transfectants (FIG. 7)
T1 construct: whole, on cells; also called CHO-K1/cynomolgus 5T4
T1 sequence (looked up): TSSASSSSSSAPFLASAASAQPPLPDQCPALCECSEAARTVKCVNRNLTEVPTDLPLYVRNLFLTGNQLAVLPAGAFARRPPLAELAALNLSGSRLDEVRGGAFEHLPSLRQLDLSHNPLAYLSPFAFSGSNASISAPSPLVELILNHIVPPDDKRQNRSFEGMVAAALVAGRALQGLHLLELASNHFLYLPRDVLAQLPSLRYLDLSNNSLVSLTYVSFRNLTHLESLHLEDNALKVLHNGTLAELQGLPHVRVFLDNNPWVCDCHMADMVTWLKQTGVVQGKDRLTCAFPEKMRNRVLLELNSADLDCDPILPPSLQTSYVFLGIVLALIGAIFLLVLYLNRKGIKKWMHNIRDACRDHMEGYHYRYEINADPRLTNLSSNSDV
Method: (§1) Binding studies were performed by standard flow cytometry-based staining procedures two cell lines expressing 5T4:CHO-K1 cells (obtained from Alligator) transduced with human or cynomolgus macaque 5T4 and SKOV-3 human ovarian adenocarcinoma cells which express (human) 5T4. All labeling and washes were performed in U-bottom 96-well plates in saline buffer with 0.1% BSA and 2 mM EDTA. Cell were plated at approximately 100,000 cells per well and incubated with a range of 100 nM to 0.05 nM concentrations of test molecules in 50 μL volume/well, for 30 minutes on ice. Cells were washed three times then incubated for another 30 min on ice with fluorescently-labeled secondary polyclonal antibody, F(ab′)² goat anti-human IgG (Jackson ImmunoResearch Laboratories). The cells were then washed twice and the samples acquired in a BD LSRII or a Symphony A3 flow cytometer. The sample files were analyzed using FlowJo software; the mean fluorescence intensity (MFI-mean) or median fluorescence intensity (MFI-median) of the live population of cells in each well was calculated after gating on live cells (forward vs side scatter). Nonlinear regression analysis to determine EC₅₀ values was performed in GraphPad Prism 6® graphing and statistics software.

human 5T4 on cells = target: T2, human 5T4 on cells (human, UniProt Q13641 32-420); experiment: flow cytometry, CHO-K1/human 5T4 cells (FIG. 4)
T2 construct: Human 5T4 on transfected cells (CHO-K1, CT26, B16) or endogenous on human tumour lines; the cell line is named under assay; also called trophoblast glycoprotein; TPBG
T2 sequence: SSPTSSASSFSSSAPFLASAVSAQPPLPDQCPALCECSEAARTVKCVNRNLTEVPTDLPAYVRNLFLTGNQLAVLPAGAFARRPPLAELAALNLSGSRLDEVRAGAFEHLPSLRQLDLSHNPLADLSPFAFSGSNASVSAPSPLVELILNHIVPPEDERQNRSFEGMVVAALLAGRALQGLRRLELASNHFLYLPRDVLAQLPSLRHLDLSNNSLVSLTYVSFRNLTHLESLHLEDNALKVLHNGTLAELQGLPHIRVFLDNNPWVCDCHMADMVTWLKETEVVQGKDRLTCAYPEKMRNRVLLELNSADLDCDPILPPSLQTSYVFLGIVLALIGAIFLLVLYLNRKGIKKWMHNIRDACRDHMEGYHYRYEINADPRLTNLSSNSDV
Method: as §1
The differences in EC₅₀ values between constructs were more evident when binding assays were conducted on SKOV-3 cells. […]

B1: ALG.APV-191 (bispecific antibody)
chain: EVQLLESGGGLVQPGGSLRLSCAASGFTFDYGSMYWVRQAPGKGLEWVSSISSGSGSTYYADSVKGRFTISHDNSKNTLYLQMNSLRAEDTAVYYCARSSYYGSYYSIDYWGQGTLVTVSSGGGGSGGGGSGGGGSGGGGSDIQMTQSPSSLSASVGDRVTITCRASQSISSYLNWYQQKPGKAPKLLIYAASSLHSGVPSRFSGSGSGTDFTLTISSLQPEDFATYYCQQYYDNLPTFGQGTKLEIKSSEPKSSDKTHTCPPCPAPEAAGAPSVFLFPPKPKDTLMISRTPEVTCVVVDVSHEDPEVKFNWYVDGVEVHNAKTKPREEQYNSTYRVVSVLTVLHQDWLNGKEYKCAVSNKALPAPIEKTISKAKGQPREPQVYTLPPSRDELTKNQVSLTCLVKGFYPSDIAVEWESNGQPENNYKTTPPVLDSDGSFFLYSKLTVDKSRWQQGNVFSCSVMHEALHNHYTQKSLSLSPGSGGGGSGGGGSGGGGSPSEVQLLESGGGLVQPGGSLRLSCAASGFTFSSYAMSWVRQAPGKCLEWVSAISGSGGSTYYADSVKGRFTISRDNSKNTLYLQMNSLRAEDTAVYYCARYYGGYYSAWMDYWGQGTLVTVSSGGGGSGGGGSGGGGSGGGGSDIQMTQSPSSLSASVGDRVTITCRASQSISSFLNWYQQKPGKAPKLLIYAASSLQSGVPSRFSGSGSGTDFTLTISSLQPEDFATYYCQQTYGYLHTFGCGTKLEIKS
notes: scFv-Fc-scFv (ADAPTIR) homodimer
B1: binds (cynomolgus 5T4 on cells); binds (human 5T4 on cells).
